Key:
AML BMMC leukemic blasts = assay: SCNP modulated signaling assay, AML study No. 2 (BMMC, CR vs NR, clinical sub-groups); assay type: cell-based, human
Procedure: Two independent sets of cryopreserved samples were analyzed sequentially. The first set consisted of 35 peripheral blood mononuclear cell (PBMC) samples derived from AML patients. The second set consisted of 134 cryopreserved bone marrow mononuclear cell (BMMC) samples derived from AML patients. These samples were the same samples used in the previous examples. Sample inclusion criteria required collection prior to initiation of induction chemotherapy, AML classification by the French-American-British (FAB) criteria as M0 through M7 (excluding M3) and availability of clinical annotations.
In the first study, induction chemotherapy consisted of at least one cycle of standard cytarabine-based induction therapy (i.e. daunorubicin 60 mg/m^2×3 days, cytarabine 100-200 mg/m^2 continuous infusion×7 days); responses were measured after one cycle of induction therapy. In the second study, cytarabine (200 mg/m^2 to 3 g/m^2) was used in combination with an anthracycline (daunorubicin or idarubicin) or an additional anti-metabolite (e.g. fludarabine or troxacitabine), and sometimes, an experimental agent (Table 16). […] Standard clinical and laboratory criteria were used for defining complete response (CR) in both studies. […] Classified as “CRp,” these samples were included in the CR group for all primary analysis. The univariate analyses were also repeated with the CRp patients classified into the NR sample group for sensitivity analysis.
Cyropreserved samples were thawed at […], washed and centrifuged in PBS, 10% FBS and 2 mM EDTA. The cells were re-suspended, filtered to remove debris and washed in RPMI cell culture media, 1% FBS, then stained with Live/Dead Fixable Aqua Viability Dye to distinguish non-viable cells. The cells were then re-suspended in RPMI, 1% FBS, aliquoted to 100,000 cells/condition and rested for 1-2 hours at 37° C. prior to SCNP assays. Each condition included two to five phenotypic markers for cell population gating (eg, CD45, CD33), up to three intracellular stains or up to three additional surface markers or control antibodies for an eight-color flow cytometry assay.
Functional assays were performed as previously described. Cells were incubated with modulators (Table 18), at 37° C. for 3-15 minutes, fixed with 1.6% paraformaldehyde (final concentration) for 10 minutes at 37° C., pelleted and permeabilized with 100% ice-cold methanol and stored at −80° C.
Data was acquired using FACS DIVA software on both LSR II and CANTO II Flow Cytometers (BD). For all analyses, dead cells and debris were excluded by forward scatter (FSC), side scatter (SSC), and Amine Aqua Viability Dye measurement. Leukemic cells were identified as cells that lacked the characteristics of mature lymphocytes (CD45^++, CD33^−) and that fit the CD45 and CD33 versus right-angle light-scatter characteristics consistent with myeloid leukemia cells.
The median fluorescence intensity (MFI) was computed for each node from the fluorescence intensity levels for the cells in the myeloid population. The MFI values were then used to compute a variety of metrics by comparing them to baseline or background values, including the unmodulated condition, cellular autofluorescence and antibody isotype controls. The following metrics were computed: • 1. Basal MFI (“Basal”)=log2(MFIUnmodulated Stained)−log2(MFIGated Unstained (Autofluoresence)), designed to measure the basal levels of a certain protein under unmodulated conditions. • 2.

[1] = system: healthy bone marrow myeloblast (BMMC); assay: FLT3L-induced signaling in healthy control BMMC myeloblasts (Example 9); assay type: cell-based, human; details: BMMC samples
Description: This example identifies intracellular signaling pathways associated with FLT3 ITD in two independent cohorts of diagnostic AML samples that serve as an improvement over current clinical tools in the identification of clinically meaningful altered FLT 3 and has implications for cohort selection in the development of FLT3 inhibitors. The two cohorts of data were further analyzed to investigate the differences in signaling between FLT-WT and FLT-ITD samples. The first cohort of data (“study 1”) comprised the 34 samples from University Health Network outlined in Table 16 and Table 19. The second cohort of data (“study 2”) comprised an 83 sample subset of MD Anderson Cancer Center data outlined in Table 16 (and Table 19). The 83 sample subset was selected based on known FLT3 mutation status. Both cohorts of data were used to investigate differences in FLT3 signaling between leukemic blasts and control data.
In order to further characterize wild-type FLT receptor signaling in AML, we compared FLT3L-induced signaling in the myeloblast population of control BMMC samples with FLT3L-induced signaling in the leukemic blast population of FLT3-WT AML samples.

[2] = Study No. 2, all patients, CR samples
[3] = Study No. 2, all patients, NR samples

| Molecule | Mean Value of CRs, p-Stat1 Total Phospho (AML BMMC leukemic blasts; [2]) | Mean Value of CRs, p-Stat3 Total Phospho (AML BMMC leukemic blasts; [2]) | Mean Value of CRs, p-Stat3 Fold (AML BMMC leukemic blasts; Study No. 2, all patients, CR samples, negative = down regulation) | Mean Value of NRs, p-Stat1 Total Phospho (AML BMMC leukemic blasts; [3]) | Mean Value of NRs, p-Stat3 Fold (AML BMMC leukemic blasts; [3]) | Mean Value of NRs, p-Stat3 Total Phospho (AML BMMC leukemic blasts; [3]) | IL-27 response, NR vs CR (AML BMMC leukemic blasts; patients younger than 60 years old) | FLT3L activation of p-Akt and p-S6 at later time point [1] | range of FLT3L-induced S6 signaling [1] | FLT3L-induced p-Akt and p-S6 ([1]; early time points (4 minutes, 10 minutes)) | Flt3L induced p-Akt and p-Erk (AML BMMC leukemic blasts; patients over age 60 or with secondary AML lacking response to induction chemotherapy) | H2O2 and FLT3L responses, NR vs CR (AML BMMC leukemic blasts; patients younger than 60 years old (so in the source)) |
| --- | --- | --- | --- | --- | --- | --- | --- | --- | --- | --- | --- | --- |
| IL-27: interleukin-27 (protein, UniProt Q8NEV9 29-243; Q14213 21-229, looked up) Interleukin-27 subunit alpha: FPRPPGRPQLSLQELRREFTVSLHLARKLLSEVRGQAHRFAESHLPGVNLYLLPLGEQLPDVSLTFQAWRRLSDPERLCFISTTLQPFHALLGGLGTQGRWTNMERMQLWAMRLDLRDLQRHLRFQVLAAGFNLPEEEEEEEEEEEEERKGLLPGALGSALQGPAQVSWPQLLSTYRLLHSLELVLSRAVRELLLLSKAGHSVWPLGFPTLSPQP Interleukin-27 subunit beta: RKGPPAALTLPRVQCRASRYPIAVDCSWTLPPAPNSTSPVSFIATYRLGMAARGHSWPCLQQTPTSTSCTITDVQLFSMAPYVLNVTAVHPWGSSSSFVPFITEHIIKPDPPEGVRLSPLAERQLQVQWEPPGSWPFPEIFSLKYWIRYKRQGAARFHRVGPIEATSFILRAVRPRARYYVQVAAQDLTDYGELSDWSLPATATMSLGK | 1.66 | 1.88 | 0.22 | 2.63 | 0.58 | 2.43 | NRs have higher IL-27 response than CRs | – | – | – | – | – |
| FLT-3L: fms-like tyrosine kinase receptor-3 ligand (protein, UniProt P49771 27-235, looked up) Fms-related tyrosine kinase 3 …: TQDCSFQHSPISSDFAVKIRELSDYLLQDYPVTVASNLQDEELCGGLWRLVLAQRWMERLKTVAGSKMQGLLERVNTEIHFVTKCAFQPPPSCLRFVQTNISRLLQETSEQLVALKPWITRQNFSRCLELQCQPDSSTLPPPWSPRPLEATAPTAPQPPLLLLLLLPVGLLLLAAAWCLHWQRTRRRTPRPGEQVPPVPSPQDLLLVEH | – | – | – | – | – | – | – | largely diminished by 15 minutes | narrow range of S6 signaling | increased levels of p-Akt and p-S6 | increased Flt3L induced p-Akt and p-Erk | NRs have higher H2O2 and FLT3L responses than CRs |

— US8399206B2, “Methods for diagnosis, prognosis and methods of treatment” (Nodality, Inc., priority 2008, dated 2013)
